Marks after values point to notes of the source that are not given here.
Tests used:
Meth A cells = assay: Antineoplastic activity of the complexes of Examples 1, 5 and 6 (Example 10); format: in vivo, BALB/c mice; details: singly administered on the 7th day; for IR, diminution rate of the tumor: 21th day; for Average tumor weight: tumor weighed on the 21th day
Protocol: (§1) Meth A cells were transplanted into BALB/c mice to prepare Meth A tumor-bearing mice. On the 7th day after the transplantation, the drug complexes shown in Examples 1, 5 and 6 were singly administered, respectively. The weight of the tumor was measured on the 21th day to evaluate the inhibitory activity on the tumor and the toxicity. In the table, * represents significance in Dunnet's test (*** p<0.001, ** P<0.01, * P<0.05), the dose is expressed in terms of the weight of anhydrous free base of DX-8951, and IR represents the diminution rate of the tumor.

[1] = Release of the drug compound from the drug complex in mouse plasma (Example 2); format: in vitro ADME; details: 37° C., 378 μg/ml, after 20 hours
[2] = test system: Meth A cells (murine fibrosarcoma Meth A); assay: Antineoplastic activity of the drug complex of Example 1 (Example 4); format: in vivo, BALB/c mice; details: for BWLmax, maximum body-weight reduction rate / N, mice died/mice used / IR, diminution rate of the tumor / Average tumor weight / day when the maximum body-weight reduction was observed: administered on the 7th day; for IR, diminution rate of the tumor: 21th day; for Average tumor weight: tumor weighed on the 21th day
Protocol: as §1, with “cells (murine fibrosarcoma Meth A)” for “cells”, “complex of Example 1 was administered.” for “complexes shown in Examples 1, 5 and 6 were singly administered, respectively.”, “P<0.001,” for “p<0.001,”, “P<0.01),” for “P<0.01, * P<0.05),”

[3] = Release of the drug compound from the drug complex in Meth A homogenate (Example 2); format: in vitro ADME, murine; details: for released amount of the drug (DX-8951), percentage of the drug in the drug complex used: 37° C., 378 μg/ml, after 20 hours
Protocol: (§2) The drug complex obtained in Example 1 was dissolved in a Meth A (murine fibrosarcoma Meth A) homogenate or a buffer at 37° C. (378 μg/ml). After 20 hours, released DX-8951 was determined. The compound wherein the spacer and DX-8951 were bound to each other without p-aminobenzyloxycarbonyl group was prepared and used as a comparative compound. The released amount of the drug is expressed in percentage of the released amount of the drug to the amount of the drug in the drug complex used.

[4] = test system: Meth A tumor-bearing mice; assay: Maximum tolerated dose (MTD) of the drug complex of Example 1 (Example 3); format: in vivo, BALB/c mice; details: for N, mice died/mice used / BWLmax, maximum body-weight reduction rate / day when the maximum body-weight reduction was observed: single administration on the 20th day
Protocol: (§3) Meth A cells were transplanted into BALB/c mice to prepare Meth A tumor-bearing mice. On the 20th day, single administration of the drug complex of Example 1 was carried out. After the administration, measurement of the body weight and observation of toxic death were made with time and the maximum body-weight reduction rate and mortality were calculated, which are shown in Table 2. The dose is expressed in terms of the weight of anhydrous free base of DX-8951.

[5] = Release of the drug compound from the drug complex in buffer (Example 2); format: physicochemical; details: for released amount of the drug (DX-8951), percentage of the drug in the drug complex used: 37° C., 378 μg/ml, after 20 hours
Protocol: as §2

[6] = Release of the drug compound from the drug complex in buffer (Example 8); format: physicochemical; details: for released amount of the drug (DX-8951), percentage of the drug in the drug complex used: 37° C., 50 μg/ml, after 20 hours
Protocol: (50 μg/ml). […] The released amount of the drug is expressed in percentage of the released amount of the drug to the amount of the drug in the drug complex used.

[7] = test system: Meth A tumor-bearing mice; assay: Maximum tolerated dose of the drug complexes of Examples 5, 6 and 7 (Example 9); format: in vivo, BALB/c mice; details: single administration on the 13th day
Protocol: as §3, with “13th” for “20th”, “day,” for “day, single administration of”, “complexes obtained in Examples 5, 6 and 7 were singly administered.” for “complex of Example 1 was carried out.”, “time,” for “time”, “5.” for “2.”
On the basis of the dose in which body weight reduction and death were observed, MTD of each complex were judged as follows.

Carboxymethyldextran polyalcohol-Gly-Gly-Gly-Phe-NH-p-C6H4—CH2—O—CO-DX-8951 [Example 6]
IR, diminution rate of the tumor (Meth A cells; 0.15625 mg/kg): 37% | Average tumor weight (Meth A cells; 0.15625 mg/kg): 1.645 ± 0.191* g | IR, diminution rate of the tumor (Meth A cells; 0.3125 mg/kg): 46% | Average tumor weight (Meth A cells; 0.3125 mg/kg): 1.419 ± 0.163** g | IR, diminution rate of the tumor (Meth A cells; 0.625 mg/kg): 90% | Average tumor weight (Meth A cells; 0.625 mg/kg): 0.272 ± 0.066*** g | IR, diminution rate of the tumor (Meth A cells; 1.25 mg/kg): 99% | Average tumor weight (Meth A cells; 1.25 mg/kg): 0.016 ± 0.008*** g

Carboxymethyldextran polyalcohol-Gly-Gly-Phe-Gly-NH-p-C6H4—CH2—O—CO-DX-8951 [Example 1]
released amount of the drug (DX-8951), percentage of the drug in the drug complex used [1]: 0.186% | BWLmax, maximum body-weight reduction rate ([2]; 0.625 mg/kg): <0% | N, mice died/mice used ([2]; 0.625 mg/kg): 0/6 | IR, diminution rate of the tumor ([2]; 0.625 mg/kg): 46% | Average tumor weight ([2]; 0.625 mg/kg): 1.247 ± 0.280** g | BWLmax, maximum body-weight reduction rate ([2]; 1.25 mg/kg): 0.3% | N, mice died/mice used ([2]; 1.25 mg/kg): 0/6 | day when the maximum body-weight reduction was observed ([2]; 1.25 mg/kg): 8 days | IR, diminution rate of the tumor ([2]; 1.25 mg/kg): 74% | Average tumor weight ([2]; 1.25 mg/kg): 0.610 ± 0.180*** g | BWLmax, maximum body-weight reduction rate ([2]; 5 mg/kg): 2.9% | N, mice died/mice used ([2]; 5 mg/kg): 0/6 | day when the maximum body-weight reduction was observed ([2]; 5 mg/kg): 13 days | IR, diminution rate of the tumor ([2]; 5 mg/kg): 99% | Average tumor weight ([2]; 5 mg/kg): 0.019 ± 0.004*** g | BWLmax, maximum body-weight reduction rate ([2]; 7.5 mg/kg): 24.8% | N, mice died/mice used ([2]; 7.5 mg/kg): 2/6 | day when the maximum body-weight reduction was observed ([2]; 7.5 mg/kg): 15 days | IR, diminution rate of the tumor ([2]; 7.5 mg/kg): 100% | Average tumor weight ([2]; 7.5 mg/kg): 0.008 ± 0.002*** g | effect on tumor weight in words ([2]; 0.625 to 7.5 mg/kg): apparently diminished tumor weight dose-dependently | N, mice died/mice used ([2]; […]): 0/6 | released amount of the drug (DX-8951), percentage of the drug in the drug complex used ([3]; Meth A homogenate (pH 4.5)): 37.7% | released amount of the drug (DX-8951), percentage of the drug in the drug complex used ([3]; Meth A homogenate (pH 5.5)): 38.1% | released amount of the drug (DX-8951), percentage of the drug in the drug complex used ([3]; Meth A homogenate (pH 6.5)): 4.25% | releasing rate of DX-8951 relative to the drug complex obtained in Example 5 ([3]; tables in Examples 2 and 8): about 113 | release of the drug in words ([3]; weakly acidic homogenate): rapidly released | N, mice died/mice used ([4]; 0.156 mg/kg): 0/2 | BWLmax, maximum body-weight reduction rate ([4]; 0.156 mg/kg, <0 = no reduction observed): <0% | N, mice died/mice used ([4]; 0.625 mg/kg): 0/2 | BWLmax, maximum body-weight reduction rate ([4]; 0.625 mg/kg, <0 = no reduction observed): <0% | toxic death in words ([4]; 10 mg/kg): toxic death of all the cases | BWLmax, maximum body-weight reduction rate ([4]; 10 mg/kg): 32.8% | N, mice died/mice used ([4]; 10 mg/kg): 2/2 | day when the maximum body-weight reduction was observed ([4]; 10 mg/kg): 26 days | BWLmax, maximum body-weight reduction rate ([4]; 30 mg/kg (as DX-8951 anhydrous free base)): 17.9% | N, mice died/mice used ([4]; 30 mg/kg): 2/2 | day when the maximum body-weight reduction was observed ([4]; 30 mg/kg): 22 days | N, mice died/mice used ([4]; […]): 0/2 | released amount of the drug (DX-8951), percentage of the drug in the drug complex used ([5]; Buffer (pH 4.5)): 0.190% | released amount of the drug (DX-8951), percentage of the drug in the drug complex used ([5]; Buffer (pH 5.5)): 0.178% | released amount of the drug (DX-8951), percentage of the drug in the drug complex used ([5]; Buffer (pH 6.5)): 0.171% | released amount of the drug (DX-8951), percentage of the drug in the drug complex used ([5]; Buffer (pH 7.5)): 0.138% | release of the drug in words ([5]; buffer): hardly released | BWLmax, maximum body-weight reduction rate (Meth A cells; 0.625 mg/kg): <0% | N, mice died/mice used (Meth A cells; 0.625 mg/kg): 0/6 | IR, diminution rate of the tumor (Meth A cells; 0.625 mg/kg): 43% | Average tumor weight (Meth A cells; 0.625 mg/kg): 1.489 ± 0.215** g | BWLmax, maximum body-weight reduction rate (Meth A cells; 1.25 mg/kg): <0% | N, mice died/mice used (Meth A cells; 1.25 mg/kg): 0/6 | IR, diminution rate of the tumor (Meth A cells; 1.25 mg/kg): 71% | Average tumor weight (Meth A cells; 1.25 mg/kg): 0.775 ± 0.207*** g | BWLmax, maximum body-weight reduction rate (Meth A cells; 5 mg/kg): 4.0% | N, mice died/mice used (Meth A cells; 5 mg/kg): 0/6 | day when the maximum body-weight reduction was observed (Meth A cells; 5 mg/kg): 13 days | IR, diminution rate of the tumor (Meth A cells; 5 mg/kg): 100% | Average tumor weight (Meth A cells; 5 mg/kg): 0.004 ± 0.001*** g | BWLmax, maximum body-weight reduction rate (Meth A cells; 7.5 mg/kg): 26.1% | N, mice died/mice used (Meth A cells; 7.5 mg/kg): 2/6 | day when the maximum body-weight reduction was observed (Meth A cells; 7.5 mg/kg): 16 days | IR, diminution rate of the tumor (Meth A cells; 7.5 mg/kg): 100% | Average tumor weight (Meth A cells; 7.5 mg/kg): 0.005 ± 0.003*** g | N, mice died/mice used (Meth A cells; […]): 0/6

carboxymethyldextran polyalcohol-Gly-Gly-NH-p-C6H4—CH2—O—CO-DX-8951 [Example 7]
released amount of the drug (DX-8951), percentage of the drug in the drug complex used ([6]; Buffer (pH 4.5)): 0.15% | released amount of the drug (DX-8951), percentage of the drug in the drug complex used ([6]; Buffer (pH 6.5)): 0.16% | release of the drug in words ([6]; buffer): hardly released | BWLmax, maximum body-weight reduction rate ([7]; 5 mg/kg): 25.4% | day when the maximum body-weight reduction was observed ([7]; 5 mg/kg): 18 days | BWLmax, maximum body-weight reduction rate ([7]; 10 mg/kg): 13.7% | day when the maximum body-weight reduction was observed ([7]; 10 mg/kg): 16 days | BWLmax, maximum body-weight reduction rate ([7]; 20 mg/kg): 14.2% | day when the maximum body-weight reduction was observed ([7]; 20 mg/kg): 16 days | BWLmax, maximum body-weight reduction rate ([7]; 30 mg/kg): 14.6% | day when the maximum body-weight reduction was observed ([7]; 30 mg/kg): 16 days | MTD ([7]; dose as DX-8951 anhydrous free base): <2.5 mg/kg
